Measurements from US20140161804A1 (AbbVie / Abbott, published 2014).

B1: hMAK199-4-h10F7-M11.8 DVD-Ig (bispecific antibody, human IgG1, kappa, L234A L235A)
heavy: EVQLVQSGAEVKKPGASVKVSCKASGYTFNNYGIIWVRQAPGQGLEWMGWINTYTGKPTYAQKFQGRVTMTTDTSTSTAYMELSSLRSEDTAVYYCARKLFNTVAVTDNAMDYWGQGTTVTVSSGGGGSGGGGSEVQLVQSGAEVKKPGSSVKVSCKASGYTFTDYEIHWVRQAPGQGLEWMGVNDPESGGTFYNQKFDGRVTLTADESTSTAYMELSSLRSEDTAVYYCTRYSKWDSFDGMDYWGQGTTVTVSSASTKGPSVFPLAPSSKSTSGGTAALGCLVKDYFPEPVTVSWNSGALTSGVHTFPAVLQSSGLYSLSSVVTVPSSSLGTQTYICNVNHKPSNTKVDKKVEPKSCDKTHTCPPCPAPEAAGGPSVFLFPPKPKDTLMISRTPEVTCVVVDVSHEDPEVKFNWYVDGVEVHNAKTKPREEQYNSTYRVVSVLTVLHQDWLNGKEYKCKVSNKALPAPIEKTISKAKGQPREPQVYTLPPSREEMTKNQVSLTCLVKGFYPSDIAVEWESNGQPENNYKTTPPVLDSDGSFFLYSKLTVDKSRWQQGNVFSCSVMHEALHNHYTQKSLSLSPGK
light: DIQMTQSPSSLSASVGDRVTITCRASQDIENYLNWYQQKPGKAPKLLIYYTSRLQSGVPSRFSGSGSGTDFTLTISSLQPEDFATYFCQQGNTQPPTFGQGTKLEIKRGGSGGGGSGDIQMTQSPSSLSASVGDRVTITCRASSGIISYIDWFQQKPGKAPKRLIYATFDLASGVPSRFSGSGSGTDYTLTISSLQPEDFATYYCRQVGSYPETFGQGTKLEIKRTVAAPSVFIFPPSDEQLKSGTASVVCLLNNFYPREAKVQWKVDNALQSGNSQESVTEQDSKDSTYSLSSTLTLSKADYEKHKVYACEVTHQGLSSPVTKSFNRGEC
notes: DVD-Ig; IgG1 234,235 mut, kappa; GS10 linkers; also called HMAK199-4-GS10-H10F7-M11 DVD
B2: hMAK199-4-h10F7-M11.8 DVD-Ig wt (bispecific antibody, human IgG1, kappa)
heavy: not shown
light: DIQMTQSPSSLSASVGDRVTITCRASQDIENYLNWYQQKPGKAPKLLIYYTSRLQSGVPSRFSGSGSGTDFTLTISSLQPEDFATYFCQQGNTQPPTFGQGTKLEIKRGGSGGGGSGDIQMTQSPSSLSASVGDRVTITCRASSGIISYIDWFQQKPGKAPKRLIYATFDLASGVPSRFSGSGSGTDYTLTISSLQPEDFATYYCRQVGSYPETFGQGTKLEIKRTVAAPSVFIFPPSDEQLKSGTASVVCLLNNFYPREAKVQWKVDNALQSGNSQESVTEQDSKDSTYSLSSTLTLSKADYEKHKVYACEVTHQGLSSPVTKSFNRGEC
notes: DVD-Ig; wild-type IgG1, kappa; GS10 linkers; Uncertain; also called HMAK199-4-h10F7-M11.8 HC DVD wt
B3: hMAK195-21-h10F7-M11.8 DVD-Ig wt (bispecific antibody, human IgG1, kappa)
heavy: not shown
light: DIQMTQSPSSLSASVGDRVTITCRASQLVSSAVAWYQQKPGKAPKLLIYWASARHTGVPSRFSGSGSGTDFTLTISSLQPEDFATYYCQQHYKTPFTFGQGTKLEIKRGGSGGGGSGDIQMTQSPSSLSASVGDRVTITCRASSGIISYIDWFQQKPGKAPKRLIYATFDLASGVPSRFSGSGSGTDYTLTISSLQPEDFATYYCRQVGSYPETFGQGTKLEIKRTVAAPSVFIFPPSDEQLKSGTASVVCLLNNFYPREAKVQWKVDNALQSGNSQESVTEQDSKDSTYSLSSTLTLSKADYEKHKVYACEVTHQGLSSPVTKSFNRGEC
notes: DVD-Ig; wild-type IgG1, kappa; GS10 linkers; also called HMAK195-21-h10F7-M11.8 HC DVD wt
B4: hMAK195-21-h10F7-M11.8 DVD-Ig (bispecific antibody, human IgG1, kappa, L234A L235A)
heavy: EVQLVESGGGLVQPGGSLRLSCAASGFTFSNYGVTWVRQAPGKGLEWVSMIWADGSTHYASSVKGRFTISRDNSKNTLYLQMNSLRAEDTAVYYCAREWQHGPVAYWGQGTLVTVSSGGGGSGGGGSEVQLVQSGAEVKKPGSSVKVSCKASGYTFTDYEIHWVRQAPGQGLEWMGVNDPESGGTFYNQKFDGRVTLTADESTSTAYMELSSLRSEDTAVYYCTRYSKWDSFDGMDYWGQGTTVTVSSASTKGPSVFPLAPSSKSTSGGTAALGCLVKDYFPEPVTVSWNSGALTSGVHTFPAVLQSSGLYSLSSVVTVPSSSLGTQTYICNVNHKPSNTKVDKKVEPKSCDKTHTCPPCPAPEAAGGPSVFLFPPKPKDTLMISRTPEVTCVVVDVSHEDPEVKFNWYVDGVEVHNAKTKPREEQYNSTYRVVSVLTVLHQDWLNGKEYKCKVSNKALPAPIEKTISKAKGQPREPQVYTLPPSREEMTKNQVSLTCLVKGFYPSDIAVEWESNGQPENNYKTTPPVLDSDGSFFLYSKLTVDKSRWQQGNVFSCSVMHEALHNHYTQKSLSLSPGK
light: DIQMTQSPSSLSASVGDRVTITCRASQLVSSAVAWYQQKPGKAPKLLIYWASARHTGVPSRFSGSGSGTDFTLTISSLQPEDFATYYCQQHYKTPFTFGQGTKLEIKRGGSGGGGSGDIQMTQSPSSLSASVGDRVTITCRASSGIISYIDWFQQKPGKAPKRLIYATFDLASGVPSRFSGSGSGTDYTLTISSLQPEDFATYYCRQVGSYPETFGQGTKLEIKRTVAAPSVFIFPPSDEQLKSGTASVVCLLNNFYPREAKVQWKVDNALQSGNSQESVTEQDSKDSTYSLSSTLTLSKADYEKHKVYACEVTHQGLSSPVTKSFNRGEC
notes: DVD-Ig, TNF outer / IL-17 inner domain; IgG1 234,235 mut, kappa; GS10 linkers; also called hMAK195-21-GS10-M11 DVD
B5: hMAK195-24-h10F7-M11.8 DVD-Ig (bispecific antibody, human IgG1, kappa, L234A L235A)
heavy: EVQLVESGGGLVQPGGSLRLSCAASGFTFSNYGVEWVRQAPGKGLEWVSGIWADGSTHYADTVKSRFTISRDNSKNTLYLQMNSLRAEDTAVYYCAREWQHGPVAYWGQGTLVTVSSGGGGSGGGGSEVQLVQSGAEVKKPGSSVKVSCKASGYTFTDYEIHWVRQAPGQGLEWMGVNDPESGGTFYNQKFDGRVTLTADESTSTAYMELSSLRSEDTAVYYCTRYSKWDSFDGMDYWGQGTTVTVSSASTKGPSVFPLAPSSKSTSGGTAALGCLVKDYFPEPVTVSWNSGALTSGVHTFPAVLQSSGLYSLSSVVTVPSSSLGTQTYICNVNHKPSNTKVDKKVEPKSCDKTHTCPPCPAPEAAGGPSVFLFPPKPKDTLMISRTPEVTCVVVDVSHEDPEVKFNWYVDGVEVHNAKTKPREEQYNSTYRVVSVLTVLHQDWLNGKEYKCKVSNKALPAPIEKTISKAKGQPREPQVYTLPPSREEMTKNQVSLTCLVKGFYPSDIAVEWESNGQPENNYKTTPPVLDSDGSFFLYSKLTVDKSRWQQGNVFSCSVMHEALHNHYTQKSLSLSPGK
light: DIQMTQSPSSLSASVGDRVTITCKASQLVSSAVAWYQQKPGKAPKLLIYWASTLHTGVPSRFSGSGSGTDFTLTISSLQPEDFATYYCQQHYRTPFTFGQGTKLEIKRGGSGGGGSGDIQMTQSPSSLSASVGDRVTITCRASSGIISYIDWFQQKPGKAPKRLIYATFDLASGVPSRFSGSGSGTDYTLTISSLQPEDFATYYCRQVGSYPETFGQGTKLEIKRTVAAPSVFIFPPSDEQLKSGTASVVCLLNNFYPREAKVQWKVDNALQSGNSQESVTEQDSKDSTYSLSSTLTLSKADYEKHKVYACEVTHQGLSSPVTKSFNRGEC
notes: DVD-Ig; IgG1 234,235 mut, kappa; GS10 linkers; also called hMAK195-24-GS10-M11 DVD
B6: hMAK195-24-h10F7-M11.8 DVD-Ig wt (bispecific antibody, human IgG1, kappa)
heavy: not shown
light: DIQMTQSPSSLSASVGDRVTITCKASQLVSSAVAWYQQKPGKAPKLLIYWASTLHTGVPSRFSGSGSGTDFTLTISSLQPEDFATYYCQQHYRTPFTFGQGTKLEIKRGGSGGGGSGDIQMTQSPSSLSASVGDRVTITCRASSGIISYIDWFQQKPGKAPKRLIYATFDLASGVPSRFSGSGSGTDYTLTISSLQPEDFATYYCRQVGSYPETFGQGTKLEIKRTVAAPSVFIFPPSDEQLKSGTASVVCLLNNFYPREAKVQWKVDNALQSGNSQESVTEQDSKDSTYSLSSTLTLSKADYEKHKVYACEVTHQGLSSPVTKSFNRGEC
notes: DVD-Ig; wild-type IgG1, kappa; GS10 linkers; also called HMAK195-24-h10F7-M11.8 HC DVD wt
B7: hMAK199-4-h10F7-M11.4 DVD-Ig wt (bispecific antibody, human IgG1, kappa)
heavy: not shown
light: DIQMTQSPSSLSASVGDRVTITCRASQDIENYLNWYQQKPGKAPKLLIYYTSRLQSGVPSRFSGSGSGTDFTLTISSLQPEDFATYFCQQGNTQPPTFGQGTKLEIKRTVAAPDIQMTQSPSSLSASVGDRVTITCRASSGIISYIDWFQQKPGKAPKRLIYATFDLASGVPSRFSGSGSGTDYTLTISSLQPEDFATYYCRQVGSYPETFGQGTKLEIKRTVAAPSVFIFPPSDEQLKSGTASVVCLLNNFYPREAKVQWKVDNALQSGNSQESVTEQDSKDSTYSLSSTLTLSKADYEKHKVYACEVTHQGLSSPVTKSFNRGEC
notes: DVD-Ig; wild-type IgG1 (CG1 Z NONA), kappa; short (SS) linkers; also called HMAK199-4-SS-H10F7-M11 DVD
B8: h10F7-M11-hMAk199-4.4 DVD-Ig wt (bispecific antibody, human IgG1, kappa)
heavy: not shown
light: DIQMTQSPSSLSASVGDRVTITCRASSGIISYIDWFQQKPGKAPKRLIYATFDLASGVPSRFSGSGSGTDYTLTISSLQPEDFATYYCRQVGSYPETFGQGTKLEIKRTVAAPDIQMTQSPSSLSASVGDRVTITCRASQDIENYLNWYQQKPGKAPKLLIYYTSRLQSGVPSRFSGSGSGTDFTLTISSLQPEDFATYFCQQGNTQPPTFGQGTKLEIKRTVAAPSVFIFPPSDEQLKSGTASVVCLLNNFYPREAKVQWKVDNALQSGNSQESVTEQDSKDSTYSLSSTLTLSKADYEKHKVYACEVTHQGLSSPVTKSFNRGEC
notes: DVD-Ig, IL-17 outer / TNF inner domain; wild-type IgG1, kappa; short linkers
B9: h10F7-M11-hMAK199-4.8 DVD-Ig wt (bispecific antibody, human IgG1, kappa)
heavy: not shown
light: DIQMTQSPSSLSASVGDRVTITCRASSGIISYIDWFQQKPGKAPKRLIYATFDLASGVPSRFSGSGSGTDYTLTISSLQPEDFATYYCRQVGSYPETFGQGTKLEIKRGGSGGGGSGDIQMTQSPSSLSASVGDRVTITCRASQDIENYLNWYQQKPGKAPKLLIYYTSRLQSGVPSRFSGSGSGTDFTLTISSLQPEDFATYFCQQGNTQPPTFGQGTKLEIKRTVAAPSVFIFPPSDEQLKSGTASVVCLLNNFYPREAKVQWKVDNALQSGNSQESVTEQDSKDSTYSLSSTLTLSKADYEKHKVYACEVTHQGLSSPVTKSFNRGEC
notes: DVD-Ig, IL-17 outer / TNF inner domain; wild-type IgG1, kappa; GS10 linkers

Assays:
Human IL-17A [1] = target: T1, Human IL-17A (human, UniProt Q16552 20-155, limits assumed); assay: ELISA, captured DVD-Ig, biotin-human IL-17 titrated
T1 construct: Biotinylated in the ELISAs; purified recombinant protein in SPR; also called hIL17A; hIL-17
T1 sequence (Q16552 20-155 limits assumed): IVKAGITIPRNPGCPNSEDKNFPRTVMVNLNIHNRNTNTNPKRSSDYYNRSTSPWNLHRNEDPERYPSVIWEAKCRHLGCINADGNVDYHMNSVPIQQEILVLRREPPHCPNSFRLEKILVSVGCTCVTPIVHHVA
Description: The following protocol is used to characterize the binding of TNF/IL-17 DVD-Ig proteins to human TNF and IL-17 by enzyme-linked immunosorbent assay (ELISA). An ELISA plate was coated with 50 μl per well of goat anti mouse IgG-Fc at 2 μg/ml, overnight at 4° C. The plate was washed 3 times with PBS/Tween. 50 μl Mab diluted to 1 μg/ml in PBS/0.1% BSA was added to appropriate wells and incubated for 1 hour at room temperature (RT). The plate was washed 3 times with PBS/Tween. 50 μl of serial diluted biotin-human TNF or IL-17 was added to appropriate wells and incubated for 1 hour at RT. The plate was washed 3 times with PBS/Tween. 50 μl of streptavidin-HRP diluted 1:10,000 in PBS/0.1% BSA was added to appropriate wells and incubated for 1 hour at RT. The plate was washed 3 times with PBS/Tween. 50 μl of TMB was added to appropriate wells and the reaction allowed to proceed for 1 minute. The reaction was stopped with 50 μl/well 2N H₂SO₄ and the absorbance read at 450 nm.

Human IL-17A [2] = target: T1, Human IL-17A; assay: SPR (Biacore T200), DVD-Ig captured by anti-human IgG Fc, antigen in solution
Description: (§1) The binding of antibodies to purified recombinant IL-17 and TNFα proteins were determined by surface plasmon resonance-based measurements with a Biacore® T200 instrument (GE Healthcare) using running HBS-EP (10 mM HEPES [pH 7.4], 150 mM NaCl, 3 mM EDTA, and 0.005% surfactant P20) containing 0.1 mg/ml BSA at 25° C. All chemicals were obtained from Biacore® AB (GE Healthcare) or otherwise from a different source as described in the text. Approximately 5000 RU of goat anti-human IgG (Fcγ) fragment specific polyclonal antibody (Pierce Biotechnology Inc, Rockford, Ill.) diluted in 10 mM sodium acetate (pH 4.5) was directly immobilized across a CM5 research grade biosensor chip using a standard amine coupling kit according to manufacturer's instructions and procedures at 25 ug/ml. Unreacted moieties on the biosensor surface were blocked with ethanolamine. Modified carboxymethyl dextran surface in flowcell 2, 3 and 4 were used as a reaction surface. Modified carboxymethyl dextran with goat IgG in flow cell 1 was used as the reference surface. For kinetic analysis, rate equations derived from the 1:1 Langmuir binding model were fitted simultaneously to association and dissociation phases of all six injections (using global fit analysis with local float for Rmax) with the use of Biacore T200 Evaluation software v.1.0. Purified antibodies were diluted in HEPES-buffered saline for capture across goat anti-human IgG specific reaction surfaces. Antibodies to be captured as ligand (1-5 μg/ml) were injected over reaction matrices at a flow rate of 50 μl/minute. Association phase was monitored for 5 minutes, while dissociation phase was monitored for 10-60 minutes to accommodate for slower off-rates. The association and dissociation rate constants, ka (unit M-1 s-1) and kd (unit s-1) were determined under a continuous flow rate of 50 μl/minute. Rate constants were derived by making kinetic binding measurements at six different antigen concentrations ranging from 0.78 nM to 100 nM, depending on the species of IL-17 or TNFα tested. The association ka, dissociation rate kd and equilibrium dissociation constant KD were calculated with the use of the same Biacore T200 Evaluation software v.1.0.

Cynomolgus monkey IL-17A = target: T2, Cynomolgus monkey IL-17A (cynomolgus monkey, UniProt A0A2K5TTB0 24-155); assay: as above
T2 construct: also called Cyno IL-17AA; Cyno IL17AA
T2 sequence (A0A2K5TTB0 entry or part of it): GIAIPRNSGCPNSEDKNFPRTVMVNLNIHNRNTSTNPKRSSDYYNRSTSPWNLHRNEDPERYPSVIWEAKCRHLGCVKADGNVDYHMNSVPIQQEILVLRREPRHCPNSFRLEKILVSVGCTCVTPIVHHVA
Description: as §1

Rhesus TNFa = target: T3, Rhesus TNFa (rhesus, UniProt P48094 77-233); assay: as above
T3 construct: also called Rhesus TNF-alpha
T3 sequence (P48094 77-233 limits assumed): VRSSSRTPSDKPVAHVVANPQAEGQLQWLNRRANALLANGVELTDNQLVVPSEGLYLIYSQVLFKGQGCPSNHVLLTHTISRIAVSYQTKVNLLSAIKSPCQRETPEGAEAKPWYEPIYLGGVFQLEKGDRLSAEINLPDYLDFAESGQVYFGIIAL
Description: as §1

Binder | EC50 (Human IL-17A [1]) | Kd (Human IL-17A [2]) | koff (Human IL-17A [2]) | kon (Human IL-17A [2]) | Kd (Cynomolgus monkey IL-17A) | koff (Cynomolgus monkey IL-17A) | kon (Cynomolgus monkey IL-17A) | Kd (Rhesus TNFa) | koff (Rhesus TNFa) | kon (Rhesus TNFa)
B1 | 0.13 nM | 0.0271 nM | 8.76e-06 s⁻¹ | 323000 M⁻¹ s⁻¹ | 0.00861 nM | 2.57e-06 s⁻¹ | 299000 M⁻¹ s⁻¹ | 0.00772 nM | 2.25e-05 s⁻¹ | 2.91e+06 M⁻¹ s⁻¹
B2 | 0.1 nM | 0.0259 nM | – | 311000 M⁻¹ s⁻¹ | 0.0113 nM | 3.15e-06 s⁻¹ | 278000 M⁻¹ s⁻¹ | 0.00813 nM | 2.48e-05 s⁻¹ | 3.05e+06 M⁻¹ s⁻¹
B3 | 0.11 nM | 0.0386 nM | 9.26e-06 s⁻¹ | 239000 M⁻¹ s⁻¹ | 0.0109 nM | 2.21e-06 s⁻¹ | 203000 M⁻¹ s⁻¹ | 0.031 nM | 0.000141 s⁻¹ | 4.56e+06 M⁻¹ s⁻¹
B4 | 0.095 nM | 0.0434 nM | 1.05e-05 s⁻¹ | 242000 M⁻¹ s⁻¹ | 0.0253 nM | 6.28e-06 s⁻¹ | 248000 M⁻¹ s⁻¹ | 0.0254 nM | 0.000132 s⁻¹ | 5.21e+06 M⁻¹ s⁻¹
B5 | 0.084 nM | 0.0427 nM | 1.07e-05 s⁻¹ | 251000 M⁻¹ s⁻¹ | 0.0241 nM | 6.25e-06 s⁻¹ | 259000 M⁻¹ s⁻¹ | 0.0716 nM | 0.000343 s⁻¹ | 4.78e+06 M⁻¹ s⁻¹
B6 | 0.12 nM | 0.0363 nM | 8.48e-06 s⁻¹ | 233000 M⁻¹ s⁻¹ | 0.0201 nM | 4.29e-06 s⁻¹ | 214000 M⁻¹ s⁻¹ | 0.0752 nM | 0.00046 s⁻¹ | 6.12e+06 M⁻¹ s⁻¹
B7 | > 0.5 nM | – | – | – | – | – | – | – | – | –
B8 | 0.04 nM | – | – | – | – | – | – | – | – | –
B9 | 0.05 nM | – | – | – | – | – | – | – | – | –
